In PMC3003327:

Key:
[1] = target: actin filaments (F-actin) of Acanthamoeba castellani cytoplasmic actin (Acanthamoeba castellani); assay: single-molecule TIRF microscopy
[2] = target: actin filaments (F-actin) of Acanthamoeba castellani cytoplasmic actin (Acanthamoeba castellani); assay: single-filament TIRF elongation rate against VASP concentration

Substance	dwell time at the growing barbed end with 1 µM actin [1] [s]	dwell time τ1 (single exponential fit without the static molecules) [1] [s]	dwell time τ1 on filament regions with p(ADP-Pi) < 0.5 [1] [s]	dwell time τ1 on filament regions with p(ADP-Pi) > 0.5 [1] [s]	dwell time τ1 on the sides of growing filaments [1] [s]	dwell time τ2 (static binding; double exponential fit of all interactions) [1] [s]	Kd [2] [nM]
Cy3-KCK-hVASP^1-380aa (C7S, C64S, C334A) (from UniProt P50552 1-380) (natural protein)	1.45	0.44	1	0.93	0.22	4.99	
human VASP^1-380aa, unlabeled wild type (untagged hVASP^1-380aa) (from UniProt P50552 1-380) (natural protein)							9.2
